Measurements from patent publication US20250051467A1 (JIANGSU HENGRUI PHARMACEUTICALS, published 2025).

Legend:
h-FAP-His [1] = biological target: T1, h-FAP-His (human, UniProt Q12884 26-760); assay: SPR, h-FAP-His analyte; upper end tied to Ab15 by Table 6
T1 construct: range 26-760; Bought recombinant protein with a His tag; also called human FAP-His protein; FAP recombinant protein with a His tag
Protocol: (§1) A CM5 sensor chip was used, and HBS-EP+buffer solution (10 mM HEPES, 150 mM NaCl, 3 mM EDTA, 0.05% surfactant P20) was used as the mobile phase. An anti-human IgG (Fc) antibody was made into a […] solution in a 10 mM sodium acetate buffer solution (pH 5.0) and immobilized by amino coupling. The test antibodies were diluted in HBS-EP+buffer solution and captured by the anti-human IgG (Fc) antibody on chip channels. h-FAP-His was dissolved in HBS-EP+buffer solution to prepare an analyte, and the analyte was serially diluted 2-fold. The diluted antibodies were passed through the experimental and reference channels at a flow rate of […], with 1 min of binding and 15 min of disassociation. 10 mM Glycine pH 1.5 was passed as a regeneration buffer solution for 30 s at a flow rate of […]. Data were analyzed. […] However, the binding affinities of the other anti-FAP antibodies obtained by screening at the same time in the present disclosure, such as Ab2, Ab4 and Ab5 (sequences not shown), for the antigen are lower than that of 28H1.

h-FAP-His [2] = biological target: T1, h-FAP-His; assay: ELISA, human FAP-His coated
Protocol: A FAP recombinant protein with a His tag was directly used for coating. After the antibodies were added, a secondary antibody (an HRP-conjugated anti-human IgG antibody) and the HRP substrate TMB were added to measure the binding activity of the antibodies to the antigen. The assay comprises the following steps: A […] solution of human FAP-His protein was used to coat a 96-well microplate at 100 μL/well, and the plate was incubated overnight at 4° C. After a thorough wash, a blocking solution was added at 200 μL/well, and the plate was incubated at room temperature for 2 h. After a thorough wash, dilutions of test anti-FAP antibodies were added at 100 μL/well. The plate was incubated at room temperature for 1 h. After a thorough wash, a 1:20,000 dilution of an HRP-labeled goat anti-human IgG secondary antibody was added at 100 μL/well. The plate was incubated at room temperature for 1 h. After a thorough wash, TMB was added at 100 μL/well, and the plate was incubated in the dark for 15 min. 0.16 M sulfuric acid was added at 50 μL/well. The OD value at 450 nm was measured on a Thermo MultiSkanFc microplate reader, and the binding EC₅₀ values of the anti-FAP antibodies were calculated.

human FAP on CHO cells = biological target: T2, human FAP on CHO cells (human, UniProt Q12884 1-760); assay: FACS, CHO cells overexpressing human FAP
T2 construct: whole, on cells; also called CHO cell line overexpressing human FAP; CHOK1/FAP
Protocol: (§2) A FACS assay was used to measure the binding properties of anti-FAP antibodies on cells. The assay comprises the following steps: A CHO cell line overexpressing human FAP was constructed and plated (1E5/well). The test antibodies were added at 100 μL/well. The highest concentration was 100 nM. A 5-fold dilution was performed, yielding 8 concentrations in total. The plate was incubated at 4° C. for 1 h. Anti-hIgG Alexa Fluor-647 was added as a secondary antibody in the ratio of 1:500. The plate was incubated at 4° C. for 30 min, and a FACS assay was performed. Antibodies that bind to FAP can mark cells. The relation between the percentage of the marked cells that over-express human FAP among all cells and the antibody concentration is shown in FIG. 1. The relation between the percentage of the marked cells that over-express mouse FAP among all cells and the antibody concentration is shown in FIG. 2.

mouse FAP on CHOK1 cells = biological target: T3, mouse FAP on CHOK1 cells (mouse, UniProt P97321 1-761); assay: FACS, percent of marked cells overexpressing mouse FAP, anti-hIgG Alexa Fluor-647 secondary antibody
T3 construct: whole, on cells; also called cell surface mouse FAP
Protocol: as §2

h-FAP-His [3] = biological target: T1, h-FAP-His; assay: SPR, antibody captured by anti-human IgG Fc, h-FAP-His analyte
Protocol: as §1

T3 sequence (P97321 whole entry): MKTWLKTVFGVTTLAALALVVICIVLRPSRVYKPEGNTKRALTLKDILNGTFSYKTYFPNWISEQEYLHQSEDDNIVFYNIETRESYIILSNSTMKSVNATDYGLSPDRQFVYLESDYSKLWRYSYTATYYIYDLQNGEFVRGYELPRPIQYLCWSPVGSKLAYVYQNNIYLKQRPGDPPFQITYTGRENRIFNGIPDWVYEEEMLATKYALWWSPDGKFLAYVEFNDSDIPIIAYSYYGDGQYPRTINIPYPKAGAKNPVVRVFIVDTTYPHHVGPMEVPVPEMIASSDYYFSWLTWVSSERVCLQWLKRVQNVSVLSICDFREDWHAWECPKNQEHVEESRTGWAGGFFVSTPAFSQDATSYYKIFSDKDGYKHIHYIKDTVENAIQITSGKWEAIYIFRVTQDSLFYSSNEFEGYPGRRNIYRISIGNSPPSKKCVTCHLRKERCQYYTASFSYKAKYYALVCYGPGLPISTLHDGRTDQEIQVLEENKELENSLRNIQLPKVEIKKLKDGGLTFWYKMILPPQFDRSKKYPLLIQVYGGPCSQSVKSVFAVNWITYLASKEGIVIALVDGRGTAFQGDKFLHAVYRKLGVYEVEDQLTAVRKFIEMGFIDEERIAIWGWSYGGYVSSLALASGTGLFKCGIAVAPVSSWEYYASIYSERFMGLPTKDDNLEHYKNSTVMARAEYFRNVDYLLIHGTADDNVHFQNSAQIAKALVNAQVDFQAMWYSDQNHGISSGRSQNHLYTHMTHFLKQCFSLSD

fold affinity over 28H1 (h-FAP-His [1]): 3 to 6 times
EC50 (h-FAP-His [2]): 321000 ng/mL
EC50 (human FAP on CHO cells): 0.486 ng/mL
EC50 (read off the curve) (mouse FAP on CHOK1 cells): ~8 ng/mL
Kd (h-FAP-His [3]): 0.215 nM
Ratio of KD of 28H1 to KD of test antibody (h-FAP-His [3]): 6.1
Ratio of Kd of 28H1 to Kd of test antibody (h-FAP-His [3]): 2.43
koff (h-FAP-His [3]): 0.000105 s⁻¹
kon (h-FAP-His [3]): 488000 M⁻¹ s⁻¹
B1: Ab15 (antibody, human IgG1, kappa, L234A L235A, V domains shown)
VH: QMQLVQSGAEVKKPGASVTVSCRASGYSFADHFIHWVRQAPGQGFQWMGWINPNRGVTHHAQDFQGRVAMTRDMSTDTVYMELTSLRSDDTAVYYCARDESLTARPYYFYGFDVWGQGTLVTVSS
VL: EIVLTQSPSSVSASVGDRVTITCRASQGISSWLAWYQQKPGKAPKSLIYAASSLQSGVPSRFSGSGSGTDFTLTISSLQPEDFATYYCQQANSFPPTFGGGTKVEIKR
notes: Fully human, IgG1 / kappa; also called anti-FAP antibody Ab15
